Assay results taken from IntAct's records for PubMed 16525023.

B1: 1-phosphatidylinositol 4,5-bisphosphate phosphodiesterase gamma-1 (Homo sapiens), P19174 (parent)
chain: MAGAASPCANGCGPGAPSDAEVLHLCRSLEVGTVMTLFYSKKSQRPERKTFQVKLETRQITWSRGADKIEGAIDIREIKEIRPGKTSRDFDRYQEDPAFRPDQSHCFVILYGMEFRLKTLSLQATSEDEVNMWIKGLTWLMEDTLQAPTPLQIERWLRKQFYSVDRNREDRISAKDLKNMLSQVNYRVPNMRFLRERLTDLEQRSGDITYGQFAQLYRSLMYSAQKTMDLPFLEASTLRAGERPELCRVSLPEFQQFLLDYQGELWAVDRLQVQEFMLSFLRDPLREIEEPYFFLDEFVTFLFSKENSVWNSQLDAVCPDTMNNPLSHYWISSSHNTYLTGDQFSSESSLEAYARCLRMGCRCIELDCWDGPDGMPVIYHGHTLTTKIKFSDVLHTIKEHAFVASEYPVILSIEDHCSIAQQRNMAQYFKKVLGDTLLTKPVEISADGLPSPNQLKRKILIKHKKLAEGSAYEEVPTSMMYSENDISNSIKNGILYLEDPVNHEWYPHYFVLTSSKIYYSEETSSDQGNEDEEEPKEVSSSTELHSNEKWFHGKLGAGRDGRHIAERLLTEYCIETGAPDGSFLVRESETFVGDYTLSFWRNGKVQHCRIHSRQDAGTPKFFLTDNLVFDSLYDLITHYQQVPLRCNEFEMRLSEPVPQTNAHESKEWYHASLTRAQAEHMLMRVPRDGAFLVRKRNEPNSYAISFRAEGKIKHCRVQQEGQTVMLGNSEFDSLVDLISYYEKHPLYRKMKLRYPINEEALEKIGTAEPDYGALYEGRNPGFYVEANPMPTFKCAVKALFDYKAQREDELTFIKSAIIQNVEKQEGGWWRGDYGGKKQLWFPSNYVEEMVNPVALEPEREHLDENSPLGDLLRGVLDVPACQIAIRPEGKNNRLFVFSISMASVAHWSLDVAADSQEELQDWVKKIREVAQTADARLTEGKIMERRKKIALELSELVVYCRPVPFDEEKIGTERACYRDMSSFPETKAEKYVNKAKGKKFLQYNRLQLSRIYPKGQRLDSSNYDPLPMWICGSQLVALNFQTPDKPMQMNQALFMTGRHCGYVLQPSTMRDEAFDPFDKSSLRGLEPCAISIEVLGARHLPKNGRGIVCPFVEIEVAGAEYDSTKQKTEFVVDNGLNPVWPAKPFHFQISNPEFAFLRFVVYEEDMFSDQNFLAQATFPVKGLKTGYRAVPLKNNYSEDLELASLLIKIDIFPAKENGDLSPFSGTSLRERGSDASGQLFHGRAREGSFESRYQQPFEDFRISQEHLADHFDSRERRAPRRTRVNGDNRL

Variants of: B1
Conditions: with akt1_human AKT1, P31749
Chain of akt1_human AKT1, P31749 (P31749 whole entry): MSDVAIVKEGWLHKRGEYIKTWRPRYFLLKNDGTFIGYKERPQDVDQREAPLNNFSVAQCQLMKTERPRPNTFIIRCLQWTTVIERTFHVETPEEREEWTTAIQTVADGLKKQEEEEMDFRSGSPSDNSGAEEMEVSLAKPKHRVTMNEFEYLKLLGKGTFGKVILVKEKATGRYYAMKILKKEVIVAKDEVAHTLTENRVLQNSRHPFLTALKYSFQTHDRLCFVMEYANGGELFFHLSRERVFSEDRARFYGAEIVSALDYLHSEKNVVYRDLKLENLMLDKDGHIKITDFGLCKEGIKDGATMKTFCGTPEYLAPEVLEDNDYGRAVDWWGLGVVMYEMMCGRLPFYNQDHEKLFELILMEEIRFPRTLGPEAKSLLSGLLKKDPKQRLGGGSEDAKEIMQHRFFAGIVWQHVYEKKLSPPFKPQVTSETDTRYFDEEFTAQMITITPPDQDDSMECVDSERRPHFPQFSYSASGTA

Variant | effect of a mutation on the interaction
Y783F | disrupting interaction
Y771F | decreasing interaction
